Laboratory results: paper PMC12994607, “Screening pertactin-specific antibodies and evaluating competitive epitope recognition by native mass spectrometry” (Chemical Science, 2026)
Where a chain is given by its changes, count along the chain named.

T1: ΔC-term Prn variant (Bordetella pertussis, strain  …, point mutant)
T1 construct: Pertactin (Prn) of Bordetella pertussis, mature passenger domain from which 64 residues at the C-terminus (with the R2 repeat region; unstructured in the X-ray structure) were truncated; also called ΔC-terminal
T1 chain: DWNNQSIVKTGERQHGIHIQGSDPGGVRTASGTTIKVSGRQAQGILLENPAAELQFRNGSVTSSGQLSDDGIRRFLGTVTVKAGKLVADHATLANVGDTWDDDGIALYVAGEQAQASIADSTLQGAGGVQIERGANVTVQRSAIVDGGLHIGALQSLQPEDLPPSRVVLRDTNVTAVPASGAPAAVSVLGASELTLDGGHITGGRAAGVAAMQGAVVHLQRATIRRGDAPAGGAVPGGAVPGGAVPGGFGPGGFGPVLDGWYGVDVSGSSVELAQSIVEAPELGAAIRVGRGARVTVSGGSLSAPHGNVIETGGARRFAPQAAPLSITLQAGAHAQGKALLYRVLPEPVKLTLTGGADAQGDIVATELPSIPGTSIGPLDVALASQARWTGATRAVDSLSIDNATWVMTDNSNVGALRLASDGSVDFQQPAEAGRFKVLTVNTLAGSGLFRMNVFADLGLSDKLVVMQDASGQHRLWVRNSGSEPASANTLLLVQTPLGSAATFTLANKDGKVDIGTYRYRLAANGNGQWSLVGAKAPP

T2: Mature Pertactin (Prn) (Bordetella pertussis, strain  …)
T2 construct: pertactin (Prn) of Bordetella pertussis, mature passenger domain; the legend on D1:p9 names 1DAB instead; also called wild-type Prn; wild type Prn
T2 chain: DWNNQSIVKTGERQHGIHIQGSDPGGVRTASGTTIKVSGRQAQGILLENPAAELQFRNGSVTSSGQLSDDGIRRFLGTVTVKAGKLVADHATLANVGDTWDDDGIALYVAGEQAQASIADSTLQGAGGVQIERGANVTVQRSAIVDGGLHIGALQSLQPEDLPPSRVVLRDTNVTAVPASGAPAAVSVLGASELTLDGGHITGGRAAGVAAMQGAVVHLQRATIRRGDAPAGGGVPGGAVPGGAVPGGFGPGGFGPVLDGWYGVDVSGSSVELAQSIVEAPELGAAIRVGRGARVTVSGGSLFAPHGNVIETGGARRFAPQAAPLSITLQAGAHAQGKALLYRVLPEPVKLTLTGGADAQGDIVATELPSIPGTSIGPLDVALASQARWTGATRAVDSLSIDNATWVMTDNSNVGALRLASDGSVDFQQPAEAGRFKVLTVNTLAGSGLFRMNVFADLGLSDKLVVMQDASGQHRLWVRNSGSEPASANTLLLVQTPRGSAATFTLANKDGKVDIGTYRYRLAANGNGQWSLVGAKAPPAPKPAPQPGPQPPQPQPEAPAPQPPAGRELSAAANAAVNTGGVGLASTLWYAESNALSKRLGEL

T3: mature pertactin (Prn), wild type (Bordetella pertussis, strain  …)
T3 construct: Pertactin (Prn) of Bordetella pertussis, mature N-terminal passenger domain (63 kDa), cut from the precursor; Kept in 0.06% C10E5 detergent for native MS; also called Prn antigen; wild-type Prn
T3 chain: T2 chain

B1: PeM-19 monoclonal antibody (R2-specific) (antibody, V domains shown)
VH: EVQLQQSGPELVKPGASVKIPCKASGYTFTDYNMDWVKQSHGKSLEWIGDINPNTGETIYNQKFEGKASLTVDKSSNTVYMELRSLTSEDTAVYYCARVPFYFDYWGQGTTLTVSR
VL: DIVMSQSPSSLTVSVGEKVTMSCKSSQSLLYSRDQKNYLAWYQQKPGQSPKMLIHWASTRASGVPDRFTGSGSGTDFTLTISSVKAEDLAVYYCQQYYFYPRTFGGGTKLELK
notes: variable region of PeM-19; mouse IgG2a heavy chain constant domains; mouse light chain constant domain; the methods describe the IgG2a format for the anti-pertactin antibodies in general; also called PeM-19 Ab; source: ExpiCHO-S, transfected, purified (Protein A); copies: 2 + 2
B2: 2E9 monoclonal antibody (antibody, V domains shown)
VH: QVQLQQSGPELVKPGASVKMSCKASGYTFTSNYIHWMKQRPGQGLEWIGWIYPGDGSSKYNEKFKGKTTLTADRSSSTAYMLLSSLTSEDSAIYFCANYFYAMDQWGQGTSVTVSR
VL: IVLTQSHKFMSTSVGDRVSITCKASQDVSTAVAWYQQKPGQSPKLLIYWASTRHTGVPDRFTGSGSGTDYTLTISSVQAEDLALYYCQQHYSTPWTFGGGTKLEIK
notes: 2E9 HC, whole heavy chain as printed: variable region with mouse IgG2a constant domains; 2E9 LC, whole light chain as printed; full-length mouse IgG2a; measured mass 147,603 Da; also called 2E9 mAb; 2E9 Ab; source: ExpiCHO-S, transfected, purified (HiTrap Protein A); copies: 2 + 2
B3: 1F2 monoclonal antibody (antibody, V domains shown)
VH: EVQLVESGGGLVKPGESLKLSCAASGFTFNSYTMSWVRQTPEKRLEWVATISSGGSYTYYPDSVKGRFTISRDNAKNTLYLQMSSLKSEDTAMYYCIRVGGLFDYWGQGTTLTVSR
VL: B2 VL with V2Q, L3M, T4I, Y70F, S76G, S92T
notes: 1F2 HC, whole heavy chain as printed: variable region with mouse IgG2a constant domains; 1F2 LC, whole light chain as printed; full-length mouse IgG2a; measured mass 148,317 Da; also called 1F2 mAb; 1F2 Ab; source: ExpiCHO-S, transfected, purified (HiTrap Protein A); copies: 2 + 2
B4: 2E9 monoclonal antibody (antibody, V domains shown)
VH: B2 VH
VL: B2 VL
notes: variable region of 2E9; mouse IgG2a heavy chain constant domains; mouse light chain constant domain; Full-length mouse IgG2a; also called 2E9 mAb; source: ExpiCHO-S, transfected, purified (Protein A); copies: 2 + 2
B5: 1F2 monoclonal antibody (antibody, V domains shown)
VH: B3 VH
VL: B2 VL with V2Q, L3M, T4I, Y70F, S76G, S92T
notes: variable region of 1F2; mouse IgG2a heavy chain constant domains; mouse light chain constant domain; Full-length mouse IgG2a; also called 1F2 antibody; source: ExpiCHO-S, transfected, purified (Protein A); copies: 2 + 2
B6: 2B1 monoclonal antibody (antibody, V domains shown)
VH: QVQLQQSGPELVKPGASVKISCKASGYSFTDYNMYWVKQSHGKSLEWIGYFDPYNGGIYYNQNFKGRATLTVDKSSSTAFMHLNSLTSEDSAVYYCARGGGWFRGFTYWGQGTLVTVSR
VL: IQMTQSTSSLSASLGDRVTISCRASQDISNYLNWYQQKPDGTLNLLIYYTSRLHSGVPSRFSGSGSGTDYSLTISNLEQEDIATYFCQQGNTLPYTFGGGTKLEIK
notes: 2B1 HC, whole heavy chain as printed: variable region with mouse IgG2a constant domains; 2B1 LC, whole light chain as printed; full-length mouse IgG2a; measured mass 149,064 Da; also called 2B1 mAb; 2B1 Ab; source: ExpiCHO-S, transfected, purified (HiTrap Protein A); copies: 2 + 2
B7: 1E7 monoclonal antibody (antibody, V domains shown)
VH: QVQLQQPAAELARPGASVKMSCRASGYTFTTYTMHWVKQRPGQGLEWIGYINPSSGYTDYNQKFRDKITLTADKSSSTAYMQLSSLTSGDSAVYYCAREDYYGQGFTYWGQGTLVTVSR
VL: B6 VL with Q2V, L43V, N44K, T92M, L93F, Y95W, I105L
notes: variable region of 1E7; mouse IgG2a heavy chain constant domains; mouse light chain constant domain; Full-length mouse IgG2a; source: ExpiCHO-S, transfected, purified (Protein A); copies: 2 + 2
B8: 2B1 monoclonal antibody (antibody, V domains shown)
VH: B6 VH
VL: B6 VL
notes: variable region of 2B1; mouse IgG2a heavy chain constant domains; mouse light chain constant domain; Full-length mouse IgG2a; source: ExpiCHO-S, transfected, purified (Protein A); copies: 2 + 2
B9: 1E7 monoclonal antibody (antibody, V domains shown)
VH: B7 VH
VL: B6 VL with Q2V, L43V, N44K, T92M, L93F, Y95W, I105L
notes: 1E7 HC, whole heavy chain as printed: variable region with mouse IgG2a constant domains; a predicted N-linked glycosylation site (NPS) in CDR2 is highlighted; 1E7 LC, whole light chain as printed; full-length mouse IgG2a; measured mass 149,106 Da; also called 1E7 mAb; 1E7 Ab; source: ExpiCHO-S, transfected, purified (HiTrap Protein A); copies: 2 + 2

Experiments:
Settings in all cases: both partners purified
ΔC-term Prn variant = molecular target: T1, ΔC-term Prn variant; assay: native MS; 2 µM mAb and 2 µM Prn or Prn variant (equimolar), 250 mM ammonium acetate with 0.06% C10E5, 1 hour at room temperature, nano-ESI on Q Exactive UHMR
Mature Pertactin (Prn) = molecular target: T2, Mature Pertactin (Prn); assay: BLI; mAb (10 nM) loaded on anti-mouse IgG Fc (AMC) biosensors, dipped into Prn at 50, 25, 12.5, 6.25, 3.125 and 1.56 nM; kinetic buffer (HEPES buffer with 0.01% BSA and 0.002% Tween-20); Octet Red96; 1:1 binding model, global fit, single replicate
[1] = molecular target: T3, mature pertactin (Prn), wild type; assay: native MS; titration: fixed 2 µM mAb, Prn 0.5 µM to 8 µM, 250 mM ammonium acetate with 0.06% C10E5

Binder	Kd (Mature Pertactin (Prn)) [nM]	stoichiometry N [1] [Prn per mAb]	further results
B1	–	–	binding result (ΔC-term Prn variant): no binding (tested: 2 µM each)
B2	< 1	–	–
B3	< 1	–	–
B4	–	2	–
B5	–	2	–
B6	< 1	–	–
B7	–	2	–
B8	–	2	–
B9	< 1	–	–
